Target: histones (calf thymus, type IIIS) (calf (thymus)) (UniProt P02253)
Assay: ITC

Chain of UniProt P02253 (P02253 whole entry): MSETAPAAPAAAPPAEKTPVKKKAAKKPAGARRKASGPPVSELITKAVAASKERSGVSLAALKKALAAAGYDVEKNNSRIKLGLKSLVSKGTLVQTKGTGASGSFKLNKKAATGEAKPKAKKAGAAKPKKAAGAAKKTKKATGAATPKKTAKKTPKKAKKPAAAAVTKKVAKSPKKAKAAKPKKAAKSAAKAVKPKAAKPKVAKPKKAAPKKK

Kd: 191 nM
Substance: large fibrin degradation products (molecular masses >150 kDa) (from UniProt P02671 36-866; P02675 45-491; P02679 27-453) (complex)
